B1: Pyruvate dehydrogenase protein X component, mitochondrial, residues 181 to 227; numbered along this chain, O00330 (parent)
chain: RFRLSPAARNILEKHSLDASQGTATGPRGIFTKEDALKLVQLKQTGK

Variants of: B1
Test: abundance fitness (aPCA) (normalised: wild type 0, dead -1); higher = more abundant; growth selection in yeast, the domain comes from the species named
Details: Homo sapiens

Abundance fitness of substitutions, site by site:
L12: Q -0.199 | F -0.584 | W -0.765 | S -0.361 | I -0.121 | Y -1.16 | G -0.332 | R -0.422 | A -0.317 | T -0.181 | H -0.504 | D 0.018 | P -0.073 | N -0.319 | C -0.019 | K -0.481 | M -0.263
L4: D 0.005 | R -0.588 | E -0.104 | N 0.049 | T -0.204 | G -0.241 | C -0.086 | M -0.008 | S -0.167 | K -0.09 | I 0.245 | A -0.37 | F -0.284 | Q -0.357 | P -0.333 | H -0.758 | Y -0.131
A8: T -0.387 | H -0.564 | R -0.391 | I -1.07 | Y -0.902 | C -0.999 | F -0.683 | N -0.817 | V -0.639 | E -0.183 | L -1.02 | W -1.15 | Q -0.601 | M -0.29
S20: T -0.109 | E 0.034 | K -0.108 | C -0.305 | L -0.345 | I -0.655 | Y -0.932 | A -0.056 | G -0.192 | D 0.087 | M -0.18 | P -0.257 | Q -0.242 | V -0.369 | F -0.545 | W -0.788 | R -0.284
K14: P -0.055 | N -0.05 | W -0.474 | S -0.279 | E 0.19 | R -0.293 | T 0.049 | M -0.149 | D -0.172 | F -0.146 | Q 0 | C -0.306 | I -0.165 | A 0.008 | Y -0.3 | G -0.142 | H -0.164
Q21: R -0.44 | W -0.223 | D -0.194 | P -0.453 | N -0.516 | L -0.051 | Y -0.481 | E 0.041 | S -0.158 | V -0.31 | G -0.101 | M -0.084 | F -0.493 | T -0.427 | C -0.167 | K -0.339
N10: M -0.052 | G -0.058 | Q 0.106 | F 0.106 | C -0.13 | W -0.272 | V -0.001 | S 0.003 | Y -0.192 | E 0.439 | L 0.064 | D 0.192 | A 0.063 | K -0.014 | P -0.163 | T 0.002 | R 0.024 | H -0.086
A7: N -0.432 | T 0.01 | S -0.078 | R -0.222 | I -0.263 | D -0.211 | G 0.06 | W -0.98 | M -0.396 | K -0.187 | H -0.605 | Q 0.062 | P -0.697
S5: T -0.032 | W -1.01 | H -0.795 | G -0.564 | K -0.61 | N -0.327 | I -0.135 | R -0.862 | C -0.608 | L -0.725 | Q -0.384 | D -0.098 | V -0.621 | E 0.081 | A -0.257 | M -0.036
I11: A -0.356 | L -0.316 | G -0.409 | M -0.52 | K -0.419 | H -0.369 | V -0.314 | P -0.383 | W -0.786 | S -0.436 | F -0.424 | D -0.175 | C -0.485 | T -0.532 | R -0.397 | N -0.194 | E -0.528 | Q -0.469
R3: W -0.119 | Y 0.109 | S -0.14 | Q -0.374 | V 0.04
A19: K -0.602 | L -0.412 | Y -0.236 | R -0.362 | G -0.136 | C -0.186 | I -0.295 | S -0.242 | D -0.355 | V -0.227 | F -0.59 | M -0.074 | Q -0.343 | T -0.379 | W -0.362 | H -0.323 | P 0.249
H15: P -0.575 | Q -0.341 | I -0.906 | D -0.283 | S -0.517 | N 0.019 | A -0.276 | R -0.985 | L -0.813 | Y -0.176 | K -0.42 | M -0.1 | G -0.255 | F -0.294 | T -0.361 | V -0.506 | E -0.138 | W -0.191
R9: M -0.251 | N -0.092 | Q -0.05 | I -0.137 | C -0.924 | W -0.668 | H -0.252 | Y -0.495 | V -0.206 | A -0.135 | S -0.272 | E -0.21 | K 0.1 | D -0.262 | G -0.152
P6: K 0.07 | N -0.053 | C -0.004 | G -0.61 | R 0.038 | W -0.261 | D -0.091 | I -0.113 | E 0.355 | A 0.027 | Y -0.174 | L -0.2 | Q -0.08 | H -0.367 | F -0.35 | T -0.093 | S 0.041 | M -0.23
L17: N -0.687 | C -0.244 | Q -0.483 | I -0.22 | D -0.534 | T -0.31 | F -0.635 | W -0.57 | V -0.331 | H -0.308 | P -0.07 | Y -0.691 | E -0.33 | K -0.509 | M -0.134 | R -0.856 | G -0.575 | A -0.506 | S -0.486
S16: Y -0.385 | G 0.244 | D 0.078 | P -0.281 | E 0.035 | H -0.026 | N 0.018 | Q 0.069 | I -0.894 | C -0.215 | M -0.708 | T -0.109 | F -0.416 | K 0.061 | L -0.667 | V -0.613 | W -0.699 | A -0.186
E13: W -0.841 | C -0.441 | D -0.079 | P -0.564 | L -0.225 | V -0.391 | M -0.661 | N 0.1 | Q -0.215 | H -0.3 | S -0.348 | R -0.242 | I -0.224 | A -0.255 | K -0.097 | F -0.612 | G -0.387 | T -0.428
T23: G -0.326 | E 0.067 | F -0.36 | H -0.326 | C -0.234 | D -0.058 | I -0.074
G22: M -0.369 | W -0.712 | S -0.619 | N -0.648 | E -0.43 | H -0.524 | R -0.723 | T -0.554 | V -0.378 | A -0.337 | K -0.633 | Q -0.479 | L -0.475 | I -0.446 | Y -0.623 | P -0.64 | D -0.552 | F -0.679 | C -0.419
D18: G -0.598 | V -0.625 | R -0.707 | S -0.393 | E -0.815 | N 0.028 | K 0.086 | M -0.394 | T -0.256 | A -0.591 | P -0.815 | W -1.06 | F -0.92 | Q -0.113 | Y -0.605 | I -0.336 | C -0.331

From the Human Domainome abundance scans (Beltran et al. 2025)
